8 sequences from the DeepSol protein solubility set can be followed below.

The nature of the data set: soluble on expression in E. coli; label from the status in PepcDB or PDB records.
For the sequence “MSLEGRSRLWPKTSAPGAFSRRSPERSWPSRRVQRHFPAKEGREAASAAALRASRRSMVGLTVAVRTGPCDLATRKTKSRWATGSDMTKSSKATSLEILACDAGWRNYHFVKLTTDDGIVGWSEFDEGFGSPGVGAAIQRLSTRIIGQNIFQHERIYAELFAATRPAAGGVVAQALGAIENAMLDAKAKCLGVPCYELLGGKIRDRVRVYWSHCATWRINHPSWYKPPIESLDGVKAMGREVREKKFTALKTNIFSYDDGKPTGWRPGFGSPFAPEINVDRKILRDLRMHLEAIRDGAGPDVDILLDCNFNAKTEGYLKILRTIADLDMFWIEIDSFNPEALGYIRRQSPHPISSCETLLGLREFLPYFHEQAMDVAIIDTPWNGVWQSMKIASAAEAFEVNVAPHNFYGHLCSMMNAHFCAAVPNLRIMEIDIDRLSWDRELFTHEPEIEDGHLIIPDRPGWGTEPNEEALRAHPPKTNGGLLNYGRKSEGHHHHHH”, the “soluble on expression in E. coli” value is reported as “not soluble”.
The entry for “MKQYLELMQKVLDEGTQKNDRTGTGTLSIFGHQMRFNLQDGFPLVTTKRCHLRSIIHELLWFLQGDTNIAYLHENNVTIWDEWADENGDLGPVYGKQWRAWPTPDGRHIDQITTVLNQLKNDPDSRRIIVSAWNVGELDKMACAPSHAFFQFYVADGKLSCQLYQRSCDVFLGLPFNIASYALLVHMMAQQCDLEVGDFVWTGGDTHLYSNHMDQTHLQLSREPRPLPKLIIKRKPESIFDYRFEDFEIEGYDPHPGIKAPVAI” is “soluble”; for “MARFIARTKLNIDDIKEVDEYKALIPENNQYEELKKAIKEQGFLFPVIVNQNRELIDGYTRLRIARELGLTEIPAEVYETGGREEELDIIASLNLKRRHLTKDELVLLIDKIHEMKKRLKKDNIEEQNSGTGARISAIDKENISKNSVTEESREIREELKKLVPDVQINEDTIRKYLQIKKEVPWLVQYIGDEKKNKIGIRKAYEIYTLLSKKNLLDLDKRIPKTELTKLITDKEGRKILERDDLLQLILDHKMAVSQAINKLKTEEKIKQSKKKSRVKTEDEYAETDEEEEDETEEGQRELDENEEYPLLEEWQKAKEEEKQEAEQQLTPQLNVSPNSNTTQVTLEFSNVLKELSNKGFTKLDFNTDVVIAKINDKYYAILLEALKSLERGSKQYKELAEFLVSNNLAVYDPEEDNYIISWRSLNCS” it is “soluble”; for “MEDNRLVINRHRATQVLFQLVNISTQLSYQFFCKDSVLLLRIVQKIQSNSWLTSCCARKTVTTLRIKTQPANNKH” it is “not soluble”.
As to “MSLAKVFTQEEREKIKGQVVELVRQSGRETLRQLEVKTGATRYLMSVLARELVASGDVYNSGYGLFPSEQARKDWQNARKKLSRAKVKKPAVVDPDLIWSSPDGEIRRYDSRLNIICRECRKSEAMQRVLAFYQGNFQEAVLEGHHHHHH”, the “soluble on expression in E. coli” value is “not soluble”.
The entry for “MGHHHHHHSHKDDTDPGQLKGLSAHTHVELPYYSKFILIAAYLASYNPARTDKRFFLKHHGKIKKTNFLKKHEKTSNHLLGPKPFPLDRLLAILYSIVDSRVAPTANIFSQITSLVTLQLLTLVGHDDQLDGPKYKCTVSLDFIRAIARTVNFDIIKYLYDFL” is “not soluble”; for “QDKITVTSEKPVAAADVPADAVVVGIEKMKYLTPEVTIKAGETVYWVNGEVMPHNVAFKKGIVGEDAFRGEMMTKDQAYAITFNEAGSYDYFCTPHPFMRGKVIVE” it is “soluble”; for “MSLKRLNCRRKGIRVRILAIDTSNQTLSIAVCENQKILGSYTATVKRNHSLTLMPAIDYLMSQLNLAPTAIDRFVVAEGPGSYTGLRLGVTTAKTLAYTLKKELVGISSLQTLAANCVGQTGLIVPLFDARRKNVYAGAYRFVNGVWQNELPDQHISLRELLEQLKNEPNLFFVGEDVEKFTEEIAQIIPHGEICDVPQWQIPNAAVLAALGSVAEPVENVHGFLPAYLKKVEAEENWLKTHTPNGESYVEKLEGHHHHHH” it is “soluble”.
